Measurements published in article PMC3315474.

Tested on: HSF-3xFLAG (Heat Shock Factor) (Drosophila (species not stated))
Experiment: EMSA
Conditions: Kd per HSF trimer, 20 mM HEPES pH 7.9, 100 mM NaCl, 3 mM MgCl2, 1 mM EDTA, 4 mM DTT, 10% glycerol, 0.1% NP-40, 300 ug/ml BSA, 10 ul, 200 amol probe, 30 min, room temperature

## HSE chr2L:5009892 (42.6 pM)
Methods print 42.7 pM
  Kd: 42.6 pM

## HSE chr2R:3529792 (308 pM)
  Kd: 308 pM

## HSE chr3L:4073542 (97.5 pM)
  Kd: 97.5 pM

## HSE chr3L:13470978 (221 pM)
HSF up to 1.5 nM monomer
  Kd: 221 pM

## HSE chrX:3380775 (224 pM)
  Kd: 224 pM
